Consider 17 molecules from patent US20150344570A1 (published 2015).

The chains are these.
B1: GpH7-A5/GpH7-B3 variant A327_09D/GpL16-k0 (antibody, human IgG1, kappa)
heavy 1: not shown
heavy 2: not shown
light: DIVMTQSPLSLPVTPGEPASISCQASESLVHSNRNTYLHWYLQKPGQSPQLLIYKVSNRFSGVPDRFSGSGSGTDFTLKISRVEAEDVGVYYCSQNTHVPPTFGQGTKVEIERTVAAPSVFIFPPSDEQLKSGTASVVCLLNNFYPREAKVQWKVDNALQSGNSQESVTEQDSKDSTYSLSSTLTLSKADYEKHKVYACEVTHQGLSSPVTKSFNRGEC
notes: Heterodimerized IgG1, mutation in the GpH7-B3 chain only; also called He Ab
B2: GpH7-A5/GpH7-B3 variant L328_07I/GpL16-k0 (antibody, human IgG1, kappa)
heavy 1: not shown
heavy 2: not shown
light: B1 light
notes: as for B1
B3: GpH7-A5/GpH7-B3 variant I332_10E/GpL16-k0 (antibody, human IgG1, kappa)
heavy 1: not shown
heavy 2: not shown
light: B1 light
notes: as for B1
B4: GpH7-A5/GpH7-B3 variant A327_10E/GpL16-k0 (antibody, human IgG1, kappa)
heavy 1: not shown
heavy 2: not shown
light: B1 light
notes: as for B1
B5: GpH7-A5/GpH7-B3 variant I332_09D/GpL16-k0 (antibody, human IgG1, kappa)
heavy 1: not shown
heavy 2: not shown
light: B1 light
notes: as for B1
B6: GpH7-A5/GpH7-B3 variant L328_04F/GpL16-k0 (antibody, human IgG1, kappa)
heavy 1: not shown
heavy 2: not shown
light: B1 light
notes: as for B1
B7: GpH7-A5/GpH7-B3 variant L328_06M/GpL16-k0 (antibody, human IgG1, kappa)
heavy 1: not shown
heavy 2: not shown
light: B1 light
notes: as for B1
B8: GpH7-A5/GpH7-B3 variant A330_05P/GpL16-k0 (antibody, human IgG1, kappa)
heavy 1: not shown
heavy 2: not shown
light: B1 light
notes: as for B1
B9: GpH7-A5/GpH7-B3 variant L328_09D/GpL16-k0 (antibody, human IgG1, kappa)
heavy 1: not shown
heavy 2: not shown
light: B1 light
notes: as for B1
B10: GpH7-A5/GpH7-B3 variant L328_02A/GpL16-k0 (antibody, human IgG1, kappa)
heavy 1: not shown
heavy 2: not shown
light: B1 light
notes: as for B1
B11: GpH7-A5/GpH7-B3 variant P331_03V/GpL16-k0 (He Ab) (antibody, human IgG1, kappa)
heavy 1: not shown
heavy 2: not shown
light: B1 light
notes: Heterodimerized antibody with the alteration in one H chain only
B12: GpH7-A5/GpH7-B3 variant L328_20W/GpL16-k0 (He Ab) (antibody, human IgG1, kappa)
heavy 1: not shown
heavy 2: not shown
light: B1 light
notes: as for B11
B13: GpH7-A5/GpH7-B3 variant L328_06M/GpL16-k0 (He Ab) (antibody, human IgG1, kappa)
heavy 1: not shown
heavy 2: not shown
light: B1 light
notes: as for B11
B14: GpH7-A5/GpH7-B3 variant L328_09D/GpL16-k0 (He Ab) (antibody, human IgG1, kappa)
heavy 1: not shown
heavy 2: not shown
light: B1 light
notes: as for B11
B15: GpH7-A5/GpH7-B3 variant P331_07I/GpL16-k0 (He Ab) (antibody, human IgG1, kappa)
heavy 1: not shown
heavy 2: not shown
light: B1 light
notes: as for B11
B16: GpH7-A5/GpH7-B3 variant P331_20W/GpL16-k0 (He Ab) (antibody, human IgG1, kappa)
heavy 1: not shown
heavy 2: not shown
light: B1 light
notes: as for B11
B17: GpH7-A5/GpH7-B3 variant P331_10E/GpL16-k0 (He Ab) (antibody, human IgG1, kappa)
heavy 1: not shown
heavy 2: not shown
light: B1 light
notes: as for B11

T4 sequence (P08637 17-208): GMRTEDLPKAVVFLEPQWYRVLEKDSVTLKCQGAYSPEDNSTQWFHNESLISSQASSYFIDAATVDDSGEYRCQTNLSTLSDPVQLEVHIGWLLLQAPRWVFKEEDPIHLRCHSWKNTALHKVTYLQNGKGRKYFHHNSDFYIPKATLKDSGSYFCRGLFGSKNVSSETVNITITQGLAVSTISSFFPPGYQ

The first assay deals with T1, FcγRIa extracellular domain with C-terminal His tag (human, UniProt P12314 16-292).
T1 construct: extracellular domain; Soluble receptor used as analyte in Biacore; also called FcgRI
T1 sequence (P12314 16-292): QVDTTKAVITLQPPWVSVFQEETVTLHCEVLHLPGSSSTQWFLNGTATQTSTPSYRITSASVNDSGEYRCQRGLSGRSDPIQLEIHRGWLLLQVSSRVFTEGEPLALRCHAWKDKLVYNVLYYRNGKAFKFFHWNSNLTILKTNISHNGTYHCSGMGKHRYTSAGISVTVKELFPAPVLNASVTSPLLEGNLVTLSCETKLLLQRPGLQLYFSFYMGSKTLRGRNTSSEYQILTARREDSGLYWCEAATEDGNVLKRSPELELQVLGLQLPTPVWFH
Briefly: ratio He/Con_1a : He/Con_2b (FcγRIa over FcγRIIb), SPR (Biacore). For orientation: Surface plasmon resonance follows binding to a sensor surface in real time, without labels.
For B1, the “He_1a/2b (Ia/IIb)” value worked out at 0.6.

Consider B2, for which the “He_1a/2b (Ia/IIb)” value was 0.62.

Regarding B3, the “He_1a/2b (Ia/IIb)” value came out at 0.68.

B4: the “He_1a/2b (Ia/IIb)” value was 0.74.

Regarding B5, the “He_1a/2b (Ia/IIb)” value was 0.64.

Regarding B6, the “He_1a/2b (Ia/IIb)” value came out at 0.45.

On to B7, for which the “He_1a/2b (Ia/IIb)” value turned out to be 0.7.

For the molecule B8, the “He_1a/2b (Ia/IIb)” value was determined as 0.74.

On to B9, for which the “He_1a/2b (Ia/IIb)” value came out at 0.51.

As for B10, the “He_1a/2b (Ia/IIb)” value came to 0.68.

Another assay concerns the target T2, FcγRIIb extracellular domain with C-terminal His tag (human, UniProt P31994 43-217).
T2 construct: extracellular domain; Soluble receptor used as analyte in Biacore; also called FcgRIIb
T2 sequence (looked up): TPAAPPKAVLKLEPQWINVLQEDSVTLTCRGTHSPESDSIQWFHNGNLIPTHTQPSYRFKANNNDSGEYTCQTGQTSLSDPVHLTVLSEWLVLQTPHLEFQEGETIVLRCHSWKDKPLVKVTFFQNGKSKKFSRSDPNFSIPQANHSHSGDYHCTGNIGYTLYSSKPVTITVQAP
The assay is described as follows: SPR (Biacore), antibody captured, FcγR as analyte; binding relative to GpH7-A5/GpH7-B3/GpL16-k0 = 100.
B1 had a He/Con_2b of 172 control = 100.

For B2, the He/Con_2b came out at 160 control = 100.

The molecule B3 displayed a He/Con_2b of 142 control = 100.

B4 came in with a He/Con_2b of 140 control = 100.

Consider B5, for which the He/Con_2b worked out at 147 control = 100.

As for B6, the He/Con_2b is 219 control = 100.

On to B7, for which the He/Con_2b is 142 control = 100.

The molecule B8 showed a He/Con_2b of 137 control = 100.

On to B9, for which the He/Con_2b was 199 control = 100.

As for B10, the He/Con_2b stood at 144 control = 100.

The next assay addresses T1, FcγRIa extracellular domain with …. The description is as above.
B1: the He/Con_1a amounted to 103 control = 100.

As to B2, the He/Con_1a worked out at 99.4 control = 100.

B3 yielded a He/Con_1a of 96.3 control = 100.

With B4, the He/Con_1a was found to be 103 control = 100.

For the molecule B5, the He/Con_1a amounted to 93.4 control = 100.

Regarding B6, the He/Con_1a came out at 97.9 control = 100.

The molecule B7 had a He/Con_1a of 98.7 control = 100.

Regarding B8, the He/Con_1a amounted to 101 control = 100.

Turning to B9, the He/Con_1a came out at 102 control = 100.

As for B10, the He/Con_1a was found to be 98.5 control = 100.

The target of a further assay is T3, FcγRIIb extracellular domain with C-terminal His tag (human, UniProt P31994 43-217).
T3 construct: extracellular domain; also called FcgRIIb; 2b; not shown: His tag attached to the C terminus
T3 sequence (looked up): T2 sequence (looked up)
The assay is described as follows: SPR (Biacore), antibody captured on antigen peptide chip, FcγR as analyte; relative binding. As to the method:
(§1) The heterodimerized antibodies He Abs in which one of the H chains was introduced with an alteration were assayed for their binding activities to each activating FcγR and inhibitory FcγR according to the method described in Example 4. […] The activating FcγRs in FIGS. 26, 27, 28, and 29 are FcγRIa, FcγRIIa (R), FcγRIIa (H), and FcγRIIIa, respectively.
(§2) Analysis of interaction between objective antibody and the FcγR was carried out using Biacore T100 (GE Healthcare). HBS-EP+ (GE Healthcare) was used as the running buffer, and the measurement temperature was set to 25° C. Chips produced by immobilizing the antigen peptide by the amine coupling method to a Series S Sencor Chip CM5 (GE Healthcare), or alternatively, chips produced by allowing preliminarily biotinylated antigen peptides to interact with and immobilize onto a Series S Sensor Chip SA (certified) (GE Healthcare) were used. Antibodies of interest were captured onto an antigen peptide-immobilized chip, and allowed to interact to each FcγR diluted with running buffer. To regenerate and repeatedly use the chip, the antibodies captured on the chip were washed off by reacting 10 mM glycine-HCl, pH 1.5.
For the molecule B11, the He/Con_2b was 119 % of GpH7-A5/GpH7-B3/GpL16-k0 (=100).

Take B12: the He/Con_2b was 235 % of GpH7-A5/GpH7-B3/GpL16-k0 (=100).

As for B13, the He/Con_2b was 142 % of GpH7-A5/GpH7-B3/GpL16-k0 (=100).

As for B14, the He/Con_2b was 199 % of GpH7-A5/GpH7-B3/GpL16-k0 (=100).

Regarding B15, the He/Con_2b was 114 % of GpH7-A5/GpH7-B3/GpL16-k0 (=100).

Take B16: the He/Con_2b is 111 % of GpH7-A5/GpH7-B3/GpL16-k0 (=100).

Regarding B17, the He/Con_2b is 116 % of GpH7-A5/GpH7-B3/GpL16-k0 (=100).

A further assay concerns the target T4, FcγRIIIa extracellular domain with C-terminal His tag (human, UniProt P08637 17-208).
T4 construct: extracellular domain; also called FcgRIIIa; 3a; not shown: His tag attached to the C terminus
The description is as above. On the procedure:
as §1, §2
Take B11: the He/Con_3a is 73.2 % of GpH7-A5/GpH7-B3/GpL16-k0 (=100).

B12: the He/Con_3a is 37.4 % of GpH7-A5/GpH7-B3/GpL16-k0 (=100).

In the case of B13, the He/Con_3a is 78.6 % of GpH7-A5/GpH7-B3/GpL16-k0 (=100).

In the case of B14, the He/Con_3a was 47.8 % of GpH7-A5/GpH7-B3/GpL16-k0 (=100).

B15: the He/Con_3a was 66 % of GpH7-A5/GpH7-B3/GpL16-k0 (=100).

For the molecule B16, the He/Con_3a is 78.6 % of GpH7-A5/GpH7-B3/GpL16-k0 (=100).

Consider B17, for which the He/Con_3a was 75.1 % of GpH7-A5/GpH7-B3/GpL16-k0 (=100).
